± gives the standard deviation of the averaged measurements.
Tested on: ATP
Test: switch fluorescence ratio, 500 uM ATP over buffer (Cy3 cluster intensity, sum of 5 cycles each) (fold (ratio)); higher = stronger signal-on switching upon ATP binding; sequences stand for … in TCGTCGGCAGCGTCAGATGTGTATAAGAGACAGTTTTTTTTTTTTTTTTTTTTTTTTT…TC
Details: aptamer strand: ATP DNA aptamer (quencher-CACCTGGGGGAGTATTGCGGAGGAAGG + anchor), 100 nM annealed; ATP concentration: 500 uM
Procedure, shortened: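 After annealing to 100 nM quencher-labelled ATP aptamer, Cy3-labelled switching-strand clusters on a modified Illumina MiSeq flow-cell were imaged in selection buffer. A second image followed after 15 min with 500 uM ATP at 22 °C, and five such buffer/ATP cycles were done, each separated by NaOH stripping and re-annealing. The fluorescence ratio, averaged per switch-domain sequence, is summed target-cycle over summed buffer-cycle Cy3 intensity per cluster, with clusters outside 100-1000 RFU excluded.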
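Note: ATP exposure 15 min at 22 °C before imaging.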

Sequence | switch fluorescence ratio
ATTTTTCAGC | 1.003 ± 0.0042
ATTTTTGACA | 1.001 ± 0.0037
ATTTTTGATG | 1.02 ± 0.073
ATTTTTGGCT | 0.995 ± 0.042
ATTTTTGTCA | 0.985 ± 0.015
ATTTTTTACA | 1.082 ± 0.0069
ATTTTTTGAC | 0.9915 ± 0.0011
ATTTTTTGGT | 0.9981 ± 0.006
ATTTTTTGTT | 0.976 ± 0.047
ATTTTTTTAG | 0.988 ± 0.02
CAAAAAAAGA | 0.986 ± 0.067
CAAAAAACCT | 1.55 ± 0.55
CAAAACGTAG | 1.01 ± 0.025
CAAAAGGGAA | 1.02 ± 0.024
CAAAAGGGCC | 1.021 ± 0.0042
CAAAATGCTT | 0.99 ± 0.047
CAAACCAGGA | 1.09 ± 0.07
CAAAGAAAAT | 0.9943 ± 0.0062
CAAAGAGGCG | 1.02 ± 0.057
CAAAGGGGTG | 1.03 ± 0.044
CAAAGGTACA | 1.008 ± 0.0063
CAAAGGTTGC | 1 ± 0.013
CAAAGTTGGA | 1.01 ± 0.017
CAAATAACAT | 1.01 ± 0.015
CAAATAAGTA | 1.01 ± 0.033

Sequence | switch fluorescence ratio
CAAATAGTGG | 0.943 ± 0.034
CAAATATACG | 1.23 ± 0.23
CAAATCTTGT | 1.03 ± 0.027
CAAATGGCTG | 1.04 ± 0.074
CAAATGGTTA | 0.974 ± 0.01
CAAATGTGCT | 0.986 ± 0.015
CAAATTCGAG | 0.984 ± 0.0033
CAAATTCGTC | 1.07 ± 0.015
CAAATTGGTG | 1.083 ± 0.0018
CAAATTTCAT | 0.985 ± 0.023
CAACAAGGCA | 1.02 ± 0.0071
CAACATCTAT | 1.02 ± 0.053
CAACGAAGTG | 1 ± 0.069
CAACGCGTTG | 1 ± 0.013
CAACGGACTA | 1.246 ± 0.0095
CAACGGTTGG | 1.01 ± 0.045
CAACGTGGGG | 0.99 ± 0.017
CAACGTTTTT | 1.01 ± 0.037
CAACTAAAAA | 1.01 ± 0.032
CAACTAAATT | 1.01 ± 0.025
CAACTCTCTG | 1 ± 0.038
CAACTGCGTG | 0.989 ± 0.013
CAACTTCCCC | 1.22 ± 0.1
CAAGAAAGTT | 0.964 ± 0.034
CAAGAACGGT | 0.969 ± 0.0077

Sequence | switch fluorescence ratio
CAAGACTTGC | 1.03 ± 0.045
CAAGAGCGGT | 1.02 ± 0.047
CAAGAGGGGC | 1 ± 0.026
CAAGATTTAT | 0.99 ± 0.023
CAAGGAAGAT | 1.02 ± 0.014
CAAGGACGAG | 1.02 ± 0.041
CAAGGATAGG | 0.9984 ± 0.0084
CAAGGCAAGG | 1.07 ± 0.018
CAAGGCATGG | 1.05 ± 0.033
CAAGGCATTG | 0.978 ± 0.02
CAAGGGATTG | 0.992 ± 0.0058
CAAGGGCCCA | 0.994 ± 0.014
CAAGGGGCAA | 0.964 ± 0.032
CAAGGGGTCC | 1.01 ± 0.032
CAAGGGTATT | 1.01 ± 0.017
CAAGGGTGGC | 1.003 ± 0.0061
CAAGGTAAGT | 1.03 ± 0.056
CAAGGTACGA | 1.02 ± 0.043
CAAGGTCAGC | 0.9798 ± 0.0071
CAAGGTTTTT | 1.01 ± 0.021
CAAGTCAAAG | 0.996 ± 0.039
CAAGTCTGG | 0.985 ± 0.032
CAAGTGTTCG | 0.996 ± 0.03
CAAGTTATAC | 1.38 ± 0.15
CAAGTTGAAA | 0.9693 ± 0.0034

Sequence | switch fluorescence ratio
CAAGTTTTGT | 1.01 ± 0.012
CAATAAAACA | 0.972 ± 0.013
CAATAATTTG | 0.99184 ± 0.00043
CAATAGGATG | 1.012 ± 0.0067
CAATAGGCGC | 1.01 ± 0.021
CAATAGGGGG | 1 ± 0.027
CAATATAGGT | 0.967 ± 0.018
CAATATATAC | 1.13 ± 0.043
CAATATGCAG | 0.962 ± 0.012
CAATATGTAT | 0.997 ± 0.063
CAATATGTGC | 1.009 ± 0.004
CAATCCTGGG | 0.989 ± 0.034
CAATCTACGC | 1.11 ± 0.038
CAATGAGTCT | 1.03 ± 0.035
CAATGCACGG | 1.07 ± 0.0098
CAATGCAGTG | 1 ± 0.019
CAATGCGTTT | 0.998 ± 0.038
CAATGGGCGT | 1.0067 ± 0.00057
CAATGGTTCT | 0.993 ± 0.036
CAATGTTATC | 1.01 ± 0.017
CAATTCAGTT | 0.991 ± 0.024
CAATTCTGTA | 0.997 ± 0.028
CAATTGCTGG | 0.949 ± 0.035
CAATTTAAGG | 0.997 ± 0.041
CAATTTAGTC | 0.983 ± 0.022

Sequence | switch fluorescence ratio
CAATTTCCCG | 1.01 ± 0.02
CAATTTGCTG | 0.94 ± 0.026
CAATTTTCTT | 1.02 ± 0.025
CAATTTTGGT | 1.01 ± 0.031
CAATTTTTAA | 0.9798 ± 0.0088
CAATTTTTCG | 1.02 ± 0.048
CAATTTTTTT | 1.08 ± 0.12
CACAAAAGCG | 1.01 ± 0.042
CACAAAAGTG | 1.02 ± 0.02
CACAAACAGA | 1.12 ± 0.036
CACAACTTAA | 0.9867 ± 0.0023
CACAATGCAG | 1 ± 0.033
CACACAAATT | 1.18 ± 0.15
CACACAGTCG | 1.09 ± 0.015
CACAGGGGAC | 1.11 ± 0.05
CACAGGGGGA | 2.67 ± 1.3
CACAGGTGCG | 2.23 ± 0.08
CACAGTGAAG | 0.985 ± 0.051
CACAGTGTCA | 1.01 ± 0.027
CACATGTAGC | 1.02 ± 0.041
CACCATAGTG | 1.03 ± 0.02
CACCATTAAT | 1.01 ± 0.017
CACCCGGCGC | 1.17 ± 0.13
CACCCGGGGT | 1.2099 ± 0.00019
CACCCTACTA | 1.29 ± 0.018

Sequence | switch fluorescence ratio
CACCGAGTTT | 0.987 ± 0.02
CACCGGAAAA | 1.09 ± 0.094
CACCGGAAGG | 1.02 ± 0.024
CACCGGGAAC | 1.56 ± 0.037
CACCGGTTGG | 1.014 ± 0.0044
CACCTTTATT | 1.018 ± 0.0096
CACGAGAAGG | 1.03 ± 0.018
CACGATTTGG | 0.995 ± 0.014
CACGCATCAG | 1.137 ± 0.011
CACGCGAGGA | 1.12 ± 0.12
CACGCGTGGT | 0.996 ± 0.019
CACGGAGGAG | 1.05 ± 0.055
CACGGATTGC | 1.18 ± 0.039
CACGGGGCGC | 0.977 ± 0.046
CACGGGGGTG | 0.987 ± 0.03
CACGGGGGTT | 1 ± 0.018
CACGGGGTAC | 1.34 ± 0.016
CACGGGGTCG | 1.036 ± 0.0027
CACGTACTCC | 1.5 ± 0.097
CACGTATCGG | 1.07 ± 0.029
CACGTGATTG | 1.02 ± 0.02
CACGTGTGTG | 0.961 ± 0.029
CACGTGTTGC | 1.04 ± 0.03
CACGTTTGGG | 1.01 ± 0.027
CACTAACCCT | 1.148 ± 0.0044

Sequence | switch fluorescence ratio
CACTAATGAG | 1.0254 ± 0.00028
CACTACGACT | 1.084 ± 0.0034
CACTACGGCC | 1.04 ± 0.043
CACTAGAAGC | 1.037 ± 0.0012
CACTAGGCTT | 1 ± 0.045
CACTAGTAGA | 1.03 ± 0.028
CACTAGTGGG | 1 ± 0.0024
CACTATGGTG | 1.05 ± 0.066
CACTCATACT | 1.16 ± 0.029
CACTCCCGGA | 1.15 ± 0.16
CACTGAGCTG | 1.07 ± 0.077
CACTGATGCC | 1.04 ± 0.019
CACTGTAACG | 1.194 ± 0.0063
CACTTCCTTT | 1.39 ± 0.51
CACTTCTGAA | 0.987 ± 0.017
CACTTCTTAT | 0.973 ± 0.021
CACTTGACGT | 1.21 ± 0.034
CACTTGGAAG | 1 ± 0.028
CACTTTGGAT | 0.9914 ± 0.0032
CAGAAAGAGC | 0.969 ± 0.0086
CAGAAAGATA | 0.997 ± 0.018
CAGAAGGATA | 1.03 ± 0.013
CAGAATTGGG | 0.967 ± 0.028
CAGACCCCAT | 1.06 ± 0.035
CAGACGTTTT | 0.9917 ± 0.0094

Sequence | switch fluorescence ratio
CAGACTCGGT | 1.02 ± 0.024
CAGACTGGTT | 1.011 ± 0.0067
CAGAGAAAC | 1.1 ± 0.12
CAGAGGAGGT | 0.982 ± 0.017
CAGAGGATAG | 1.017 ± 0.0088
CAGAGGATAT | 1.021 ± 0.01
CAGAGGGCTA | 1.03 ± 0.038
CAGAGGGGCG | 1.04 ± 0.043
CAGAGGGGGG | 0.994 ± 0.019
CAGAGGGGTC | 0.999 ± 0.022
CAGAGGTGCG | 0.969 ± 0.056
CAGAGTAAGC | 1.01 ± 0.021
CAGAGTAATA | 1.45 ± 0.1
CAGATAAAAA | 1.03 ± 0.02
CAGATAATAT | 1.04 ± 0.022
CAGATAGGCT | 1.04 ± 0.019
CAGATAGTGT | 1.018 ± 0.002
CAGATGATAT | 0.992 ± 0.047
CAGATTAAGT | 0.992 ± 0.03
CAGATTTTTT | 0.982 ± 0.028
CAGCAGGGAG | 1.1 ± 0.096
CAGCATGGGG | 1.03 ± 0.017
CAGCCAAATA | 1.1 ± 0.029
CAGCCGCTGT | 1.79 ± 0.026
CAGCCGTTTC | 1.03 ± 0.033

— the supplement of paper PMC10126150
